Article PMC8430995

Target: Akt WT (transfected), P31749
Test: co-immunoprecipitation (K8/K18 IP, Akt immunoblot, quantified)
Conditions: chain shown with the change, BHK-21 cells transfected with Akt WT, parent: est. 1.0, read off a plot

Chain of Akt WT (transfected), P31749 (P31749 whole entry): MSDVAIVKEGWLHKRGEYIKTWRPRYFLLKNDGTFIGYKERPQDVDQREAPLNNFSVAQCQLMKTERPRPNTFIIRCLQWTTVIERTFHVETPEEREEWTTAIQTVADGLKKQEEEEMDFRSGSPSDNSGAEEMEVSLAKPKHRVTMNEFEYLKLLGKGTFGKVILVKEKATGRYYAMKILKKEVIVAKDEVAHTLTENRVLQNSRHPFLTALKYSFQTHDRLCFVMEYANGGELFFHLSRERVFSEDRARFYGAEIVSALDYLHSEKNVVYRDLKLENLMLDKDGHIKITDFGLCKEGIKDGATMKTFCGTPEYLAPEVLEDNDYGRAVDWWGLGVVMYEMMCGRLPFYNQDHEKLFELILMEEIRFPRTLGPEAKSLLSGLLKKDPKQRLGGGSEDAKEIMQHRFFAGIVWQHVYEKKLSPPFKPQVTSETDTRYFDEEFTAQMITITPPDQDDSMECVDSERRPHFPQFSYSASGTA

Binder	ratio to parent (K18 WT and the K8 mutant)	ratio to parent (K8 WT and the K18 mutant)
K8 WT/K18 WT (transfected), P05787;P05783 K8:G434S (protein) chain 1: MSIRVTQKSYKVSTSGPRAFSSRSYTSGPGSRISSSSFSRVGSSNFRGGLGGGYGGASGMGGITAVTVNQSLLSPLVLEVDPNIQAVRTQEKEQIKTLNNKFASFIDKVRFLEQQNKMLETKWSLLQQQKTARSNMDNMFESYINNLRRQLETLGQEKLKLEAELGNMQGLVEDFKNKYEDEINKRTEMENEFVLIKKDVDEAYMNKVELESRLEGLTDEINFLRQLYEEEIRELQSQISDTSVVLSMDNSRSLDMDSIIAEVKAQYEDIANRSRAEAESMYQIKYEELQSLAGKHGDDLRRTKTEISEMNRNISRLQAEIEGLKGQRASLEAAIADAEQRGELAIKDANAKLSELEAALQRAKQDMARQLREYQELMNVKLALDIEIATYRKLLEGEESRLESGMQNMSIHTKTTSGYAGGLSSAYGGLTSPSLSYSLGSSFGSGAGSSSFSRTSSSRAVVVKKIETRDGKLVSESSDVLPK chain 2: MSFTTRSTFSTNYRSLGSVQAPSYGARPVSSAASVYAGAGGSGSRISVSRSTSFRGGMGSGGLATGIAGGLAGMGGIQNEKETMQSLNDRLASYLDRVRSLETENRRLESKIREHLEKKGPQVRDWSHYFKIIEDLRAQIFANTVDNARIVLQIDNARLAADDFRVKYETELAMRQSVENDIHGLRKVIDDTNITRLQLETEIEALKEELLFMKKNHEEEVKGLQAQIASSGLTVEVDAPKSQDLAKIMADIRAQYDELARKNREELDKYWSQQIEESTTVVTTQSAEVGAAETTLTELRRTVQSLEIDLDSMRNLKASLENSLREVEARYALQMEQLNGILLHLESELAQTRAEGQRQAQEYEALLNIKVKLEAEIATYRRLLEDGEDFNLGDALDSSNSMQTIQKTTTRRIVDGKVVSETNDTKVLRH	1.2	
K8 WT/K18 WT (transfected), P05787;P05783 K8:G62C (protein) chain 1: MSIRVTQKSYKVSTSGPRAFSSRSYTSGPGSRISSSSFSRVGSSNFRGGLGGGYGGASGMGCITAVTVNQSLLSPLVLEVDPNIQAVRTQEKEQIKTLNNKFASFIDKVRFLEQQNKMLETKWSLLQQQKTARSNMDNMFESYINNLRRQLETLGQEKLKLEAELGNMQGLVEDFKNKYEDEINKRTEMENEFVLIKKDVDEAYMNKVELESRLEGLTDEINFLRQLYEEEIRELQSQISDTSVVLSMDNSRSLDMDSIIAEVKAQYEDIANRSRAEAESMYQIKYEELQSLAGKHGDDLRRTKTEISEMNRNISRLQAEIEGLKGQRASLEAAIADAEQRGELAIKDANAKLSELEAALQRAKQDMARQLREYQELMNVKLALDIEIATYRKLLEGEESRLESGMQNMSIHTKTTSGYAGGLSSAYGGLTSPGLSYSLGSSFGSGAGSSSFSRTSSSRAVVVKKIETRDGKLVSESSDVLPK chain 2: MSFTTRSTFSTNYRSLGSVQAPSYGARPVSSAASVYAGAGGSGSRISVSRSTSFRGGMGSGGLATGIAGGLAGMGGIQNEKETMQSLNDRLASYLDRVRSLETENRRLESKIREHLEKKGPQVRDWSHYFKIIEDLRAQIFANTVDNARIVLQIDNARLAADDFRVKYETELAMRQSVENDIHGLRKVIDDTNITRLQLETEIEALKEELLFMKKNHEEEVKGLQAQIASSGLTVEVDAPKSQDLAKIMADIRAQYDELARKNREELDKYWSQQIEESTTVVTTQSAEVGAAETTLTELRRTVQSLEIDLDSMRNLKASLENSLREVEARYALQMEQLNGILLHLESELAQTRAEGQRQAQEYEALLNIKVKLEAEIATYRRLLEDGEDFNLGDALDSSNSMQTIQKTTTRRIVDGKVVSETNDTKVLRH	1.7	

Continued, values first:

ratio to parent (K18 WT and the K8 mutant)	ratio to parent (K8 WT and the K18 mutant)	Binder
	1.2	K8 WT/K18 WT (transfected), P05787;P05783 K18:D238E; K18:D396E (protein) chain 1: MSIRVTQKSYKVSTSGPRAFSSRSYTSGPGSRISSSSFSRVGSSNFRGGLGGGYGGASGMGGITAVTVNQSLLSPLVLEVDPNIQAVRTQEKEQIKTLNNKFASFIDKVRFLEQQNKMLETKWSLLQQQKTARSNMDNMFESYINNLRRQLETLGQEKLKLEAELGNMQGLVEDFKNKYEDEINKRTEMENEFVLIKKDVDEAYMNKVELESRLEGLTDEINFLRQLYEEEIRELQSQISDTSVVLSMDNSRSLDMDSIIAEVKAQYEDIANRSRAEAESMYQIKYEELQSLAGKHGDDLRRTKTEISEMNRNISRLQAEIEGLKGQRASLEAAIADAEQRGELAIKDANAKLSELEAALQRAKQDMARQLREYQELMNVKLALDIEIATYRKLLEGEESRLESGMQNMSIHTKTTSGYAGGLSSAYGGLTSPGLSYSLGSSFGSGAGSSSFSRTSSSRAVVVKKIETRDGKLVSESSDVLPK chain 2: MSFTTRSTFSTNYRSLGSVQAPSYGARPVSSAASVYAGAGGSGSRISVSRSTSFRGGMGSGGLATGIAGGLAGMGGIQNEKETMQSLNDRLASYLDRVRSLETENRRLESKIREHLEKKGPQVRDWSHYFKIIEDLRAQIFANTVDNARIVLQIDNARLAADDFRVKYETELAMRQSVENDIHGLRKVIDDTNITRLQLETEIEALKEELLFMKKNHEEEVKGLQAQIASSGLTVEVEAPKSQDLAKIMADIRAQYDELARKNREELDKYWSQQIEESTTVVTTQSAEVGAAETTLTELRRTVQSLEIDLDSMRNLKASLENSLREVEARYALQMEQLNGILLHLESELAQTRAEGQRQAQEYEALLNIKVKLEAEIATYRRLLEDGEDFNLGDALESSNSMQTIQKTTTRRIVDGKVVSETNDTKVLRH
1.8		K8 WT/K18 WT (transfected), P05787;P05783 K8:R302C (protein) chain 1: MSIRVTQKSYKVSTSGPRAFSSRSYTSGPGSRISSSSFSRVGSSNFRGGLGGGYGGASGMGGITAVTVNQSLLSPLVLEVDPNIQAVRTQEKEQIKTLNNKFASFIDKVRFLEQQNKMLETKWSLLQQQKTARSNMDNMFESYINNLRRQLETLGQEKLKLEAELGNMQGLVEDFKNKYEDEINKRTEMENEFVLIKKDVDEAYMNKVELESRLEGLTDEINFLRQLYEEEIRELQSQISDTSVVLSMDNSRSLDMDSIIAEVKAQYEDIANRSRAEAESMYQIKYEELQSLAGKHGDDLRCTKTEISEMNRNISRLQAEIEGLKGQRASLEAAIADAEQRGELAIKDANAKLSELEAALQRAKQDMARQLREYQELMNVKLALDIEIATYRKLLEGEESRLESGMQNMSIHTKTTSGYAGGLSSAYGGLTSPGLSYSLGSSFGSGAGSSSFSRTSSSRAVVVKKIETRDGKLVSESSDVLPK chain 2: MSFTTRSTFSTNYRSLGSVQAPSYGARPVSSAASVYAGAGGSGSRISVSRSTSFRGGMGSGGLATGIAGGLAGMGGIQNEKETMQSLNDRLASYLDRVRSLETENRRLESKIREHLEKKGPQVRDWSHYFKIIEDLRAQIFANTVDNARIVLQIDNARLAADDFRVKYETELAMRQSVENDIHGLRKVIDDTNITRLQLETEIEALKEELLFMKKNHEEEVKGLQAQIASSGLTVEVDAPKSQDLAKIMADIRAQYDELARKNREELDKYWSQQIEESTTVVTTQSAEVGAAETTLTELRRTVQSLEIDLDSMRNLKASLENSLREVEARYALQMEQLNGILLHLESELAQTRAEGQRQAQEYEALLNIKVKLEAEIATYRRLLEDGEDFNLGDALDSSNSMQTIQKTTTRRIVDGKVVSETNDTKVLRH
